The labels stand for the following.
T1: Pumilio RNA-binding domain (UniProt P25822 1091-1426)
T1 sequence: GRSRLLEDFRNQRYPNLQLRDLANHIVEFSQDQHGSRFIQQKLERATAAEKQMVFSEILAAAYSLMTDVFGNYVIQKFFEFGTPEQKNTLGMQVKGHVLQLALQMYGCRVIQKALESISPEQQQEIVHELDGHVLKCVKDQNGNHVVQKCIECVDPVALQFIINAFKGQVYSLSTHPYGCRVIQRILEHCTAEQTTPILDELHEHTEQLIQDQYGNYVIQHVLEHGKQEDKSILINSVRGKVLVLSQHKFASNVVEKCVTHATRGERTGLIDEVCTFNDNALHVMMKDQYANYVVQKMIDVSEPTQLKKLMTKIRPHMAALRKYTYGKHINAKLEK

Sequence of Bruno (O02374 entry or part of it): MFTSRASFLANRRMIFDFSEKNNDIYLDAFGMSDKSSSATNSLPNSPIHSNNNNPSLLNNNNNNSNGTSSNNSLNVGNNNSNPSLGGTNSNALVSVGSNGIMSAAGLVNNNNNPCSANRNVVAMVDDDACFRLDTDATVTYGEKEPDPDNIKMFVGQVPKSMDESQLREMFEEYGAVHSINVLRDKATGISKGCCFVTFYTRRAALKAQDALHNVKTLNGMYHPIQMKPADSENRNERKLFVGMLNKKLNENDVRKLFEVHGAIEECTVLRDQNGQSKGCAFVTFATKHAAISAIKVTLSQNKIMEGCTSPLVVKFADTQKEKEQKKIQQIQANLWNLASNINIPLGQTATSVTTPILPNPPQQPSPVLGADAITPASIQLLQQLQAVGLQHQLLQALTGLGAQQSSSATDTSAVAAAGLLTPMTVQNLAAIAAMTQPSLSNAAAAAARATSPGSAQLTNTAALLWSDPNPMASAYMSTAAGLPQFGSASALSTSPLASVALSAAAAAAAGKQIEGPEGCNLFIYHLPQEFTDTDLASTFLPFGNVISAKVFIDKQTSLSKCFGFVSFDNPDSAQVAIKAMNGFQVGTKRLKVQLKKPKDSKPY

The first data set has as its target Bruno (UniProt O02374 1-604). Briefly: EMSA; 50 mM Tris pH 7.5, 150 mM NaCl, 2 mM DTT, 0.1 mg/ul BSA (so in the source), 0.001% Igepal CA-630, dIdC and yeast tRNA; 20 min at RT; 6% native PAGE at 4 C. The note with it: protein: recombinant; tags: His (pETM-82; purified on His GraviTrap); label: 5'-32P.
Regarding CUUGAAUGUAUGUUAAUUGUAUGUAUUGAU (ssRNA) [osk 3'UTR BRE], the binding result is “binds”.
Same read-out and setting: the entry for UUUCUCAAUU (ssRNA) [pgc 3'UTR PRE mutant UCUC] is “no binding”; for UUUUUUAAUU (ssRNA) [pgc 3'UTR PRE mutant UUUU] it is “no binding”; for UUUGUAAAUU (ssRNA) [pgc 3'UTR PRE/BRE] it is “binds”.

In a further data set the target is T1, Pumilio RNA-binding domain. Described as above. The note with it: protein: recombinant; tags: HaloTag (pFN18K) removed by AcTEV cleavage; label: 5'-32P.
For UUUCUCAAUU (ssRNA) [pgc 3'UTR PRE mutant UCUC], the binding result was “no binding”.
Consider UUUUUUAAUU (ssRNA) [pgc 3'UTR PRE mutant UUUU], for which the binding result was “no binding”.
Consider UAGACUAUUUGUAAUUUAUAUC (ssRNA) [CycB 3'UTR NRE], for which the binding result is “binds”.
Turning to UUUGUAAAUU (ssRNA) [pgc 3'UTR PRE/BRE], the binding result is recorded as “binds”.
